Columns and labels:
HUVEC = HUVEC cellular migration assay; assay type: cell-based, human
Procedure: Robo4-Fc and Robo4-His were contacted with vascular ECs using a HUVEC migration assay and in the presence or absence of VEGF.
Endothelial cell migration was not blocked by anti-Robo4 antibody in an in vitro assay using human umbilical vascular endothelial cells (HUVEC) cellular migration assay. HUVECs endogenously express human Robo4. The assay was performed as follows. HUVECs were pre-incubated for 2 hours with VEGF.

UNC5B = target: T1, UNC5B (Homo sapiens, UniProt Q8IZJ1); experiment: SPR binding to immobilized UNC5B-Fc
T1 construct: extracellular domain of UNC5B fused to an Fc region; Fc region
Procedure: It has been shown that netrin binding to members of the uncoordinated-5 (UNC5) family of receptors (UNC5A, B, C, and D) results in neural axon […] (Klagsbrun, M. and Eichmann, A., Cytokine & Growth Factor Reviews 16(4-5):535-548 (2005)). Netrin-UNC5B interaction has been implicated in angiogenesis (Klagsbrun, M. and Eichmann, A., supra (2005) and Lu, X. et al., Nature 432:179-186 (2004)). The interaction of Robo4 with UNC5B in vitro was determined by SPR binding measurements in which UNC5B-Fc fusion protein (extracellular domain of UNC5B fused to an Fc region) was immobilized on a chip and soluble Robo4-Fc or Robo4-His was allowed to interact with it at different concentrations.

T1 sequence (Q8IZJ1 27-377 limits assumed, species assumed): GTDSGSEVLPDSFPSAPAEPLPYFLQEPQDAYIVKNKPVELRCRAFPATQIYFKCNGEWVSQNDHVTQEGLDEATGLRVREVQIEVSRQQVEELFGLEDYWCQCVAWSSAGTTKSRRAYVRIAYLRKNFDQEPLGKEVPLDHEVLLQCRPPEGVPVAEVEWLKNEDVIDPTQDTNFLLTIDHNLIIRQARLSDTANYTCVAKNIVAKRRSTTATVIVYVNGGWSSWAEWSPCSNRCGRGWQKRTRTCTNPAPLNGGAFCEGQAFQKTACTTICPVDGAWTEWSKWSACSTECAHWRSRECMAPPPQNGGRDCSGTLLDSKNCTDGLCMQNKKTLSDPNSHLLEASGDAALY

interaction with UNC5B (UNC5B): interacts in vitro with UNC5B
B1: Robo4-His: soluble Robo4 extracellular domain fused to a C-terminal Histidine tag (protein)
chain: QDSPPQILVHPQDQLFQGPGPARMSCQASGQPPPTIRWLLNGQPLSMVPPDPHHLLPDGTLLLLQPPARGHAHDGQALSTDLGVYTCEASNRLGTAVSRGARLSVAVLREDFQIQPRDMVAVVGEQFTLECGPPWGHPEPTVSWWKDGKPLALQPGRHTVSGGSLLMARAEKSDEGTYMCVATNSAGHRESRAARVSIQEPQDYRAHHHHHHHH
blocking of endothelial cell migration (HUVEC; HUVECs pre-incubated with VEGF, 16 hours): Neither anti-Robo4 nor the soluble Robo4 extracellular domain fusion proteins (Robo4-Fc and Robo4-His) blocked EC migration
induction of EC migration (HUVEC; alone, absence of VEGF): did not induce EC migration

Source: patent US20110059013A1, “ANTI-ROBO4 ANTIBODIES AND USES THEREFOR” (Genentech, Inc., priority 2007, published 2011)
